This note sets out measurements from US20230295751, “Biological Detection Sensor Chip and COVID-19 Test Kit” (published 2023).

Data set [1] deals with Negative control virus without spike protein. Nature of the data set: SPR. To be noted: 5'-NH2 with 12C spacer.
Data set [2] deals with Bovine serum albumin (BSA) (Bos taurus, UniProt P02769 P02769:25-607). Nature of the data set: SPR.
Chain of Bovine serum albumin (BSA) (P02769 25-607, one chain of several): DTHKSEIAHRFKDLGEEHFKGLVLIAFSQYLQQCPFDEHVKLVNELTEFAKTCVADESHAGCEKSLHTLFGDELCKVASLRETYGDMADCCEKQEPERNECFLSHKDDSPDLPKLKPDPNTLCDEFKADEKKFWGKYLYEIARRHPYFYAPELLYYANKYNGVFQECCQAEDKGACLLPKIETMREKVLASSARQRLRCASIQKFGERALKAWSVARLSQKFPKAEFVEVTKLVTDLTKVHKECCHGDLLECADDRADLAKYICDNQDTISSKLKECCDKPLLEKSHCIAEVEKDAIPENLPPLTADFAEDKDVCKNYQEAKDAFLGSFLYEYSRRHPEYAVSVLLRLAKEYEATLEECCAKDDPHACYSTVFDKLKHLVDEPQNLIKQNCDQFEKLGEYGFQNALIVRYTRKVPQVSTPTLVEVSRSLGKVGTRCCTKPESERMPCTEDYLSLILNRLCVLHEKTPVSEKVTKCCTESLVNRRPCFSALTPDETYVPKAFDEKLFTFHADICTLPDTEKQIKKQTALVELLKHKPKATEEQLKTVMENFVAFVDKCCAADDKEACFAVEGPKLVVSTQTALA

Turning to “CAGCACCGACCTTGTGCTTTGGGAGTGCTGGTCCAAGGGCGTTAATGGACA [Capturing aptamer against SARS-CoV-2 SRBD]”, the binding in data set [1] came to 23 RU.

B1: Capturing aptamer against SARS-CoV-2 SRBD (ssDNA)
DNA: CAGCACCGACCTTGTGCTTTGGGAGTGCTGGTCCAAGGGCGTTAATGGACA
modifications: 5'-NH2 with 12C spacer
Regarding B1, the binding result in data set [2] is on record as “no binding”.
